Test [1] addresses T1, マウスFcγRI (mouse, UniProt P26151 25-297, limits assumed).
T1 construct: also called mouse FcγRI
T1 sequence (looked up): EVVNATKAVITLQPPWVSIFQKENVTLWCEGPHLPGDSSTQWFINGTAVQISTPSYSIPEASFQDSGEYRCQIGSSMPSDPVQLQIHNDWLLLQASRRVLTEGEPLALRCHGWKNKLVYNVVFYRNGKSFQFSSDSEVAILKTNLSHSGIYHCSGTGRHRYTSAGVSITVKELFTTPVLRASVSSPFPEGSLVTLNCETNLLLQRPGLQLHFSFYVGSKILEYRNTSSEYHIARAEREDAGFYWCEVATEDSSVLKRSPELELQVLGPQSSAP
The test can be described thus: SPR, Biacore; antibody captured on immobilised mouse FcRn, FcγR as analyte, pH 7.4, 25C. Background: Surface plasmon resonance follows binding to a sensor surface in real time, without labels.

Test [2] deals with T2, マウスFcγRIIb (mouse, UniProt P08101 30-210, limits assumed).
T2 construct: also called mouse FcγRIIb
T2 sequence (looked up): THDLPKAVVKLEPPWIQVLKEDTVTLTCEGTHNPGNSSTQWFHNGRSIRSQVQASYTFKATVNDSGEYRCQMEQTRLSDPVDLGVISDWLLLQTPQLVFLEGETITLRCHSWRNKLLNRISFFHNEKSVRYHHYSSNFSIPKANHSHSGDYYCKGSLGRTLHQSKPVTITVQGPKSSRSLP
The test is described as above.

Test [3] addresses T3, マウスFcγRIII (mouse, UniProt P08508 31-215, limits assumed).
T3 construct: also called mouse FcγRIII
T3 sequence (looked up): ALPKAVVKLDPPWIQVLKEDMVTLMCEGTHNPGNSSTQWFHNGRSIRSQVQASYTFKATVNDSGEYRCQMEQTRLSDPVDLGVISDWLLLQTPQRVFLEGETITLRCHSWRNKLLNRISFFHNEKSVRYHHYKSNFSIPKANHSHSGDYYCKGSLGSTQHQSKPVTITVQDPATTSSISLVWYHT
Described as above.

For test [4], the target named is T4, ヒトFcγRIIb (human, UniProt P31994 43-217).
T4 construct: extracellular domain; for the crystals it was expressed with kifunensine and its N-glycans trimmed with Endo F1; also called FcγRIIb細胞外領域
T4 sequence (looked up): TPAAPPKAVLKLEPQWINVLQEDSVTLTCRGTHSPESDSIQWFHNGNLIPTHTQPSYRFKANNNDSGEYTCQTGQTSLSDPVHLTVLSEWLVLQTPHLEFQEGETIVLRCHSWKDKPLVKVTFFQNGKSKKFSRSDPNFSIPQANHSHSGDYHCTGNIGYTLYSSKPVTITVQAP
The test can be described thus: SPR, KD.

For test [5], the target named is ヒトFcγRIa (human, UniProt P12314 16-292). The test can be described thus: SPR, KD.
Test [6] concerns the target T5, ヒトFcγRIIa (H) (human, UniProt P12318 34-217).
T5 construct: extracellular domain; also called FcγRIIa H型
T5 sequence (looked up): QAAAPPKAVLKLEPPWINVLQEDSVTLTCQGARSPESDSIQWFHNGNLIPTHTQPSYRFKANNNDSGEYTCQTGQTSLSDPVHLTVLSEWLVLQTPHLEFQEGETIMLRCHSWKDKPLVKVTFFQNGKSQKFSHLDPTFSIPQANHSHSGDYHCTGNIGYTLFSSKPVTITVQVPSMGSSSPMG
Kind of test: SPR, KD.

The target of test [7] is T4, ヒトFcγRIIb. Kind of test: SPR; KD for FcγRIIaR divided by KD for FcγRIIb.
The target of test [8] is T4, ヒトFcγRIIb. Kind of test: SPR, KD; reference IL6R-BP230/IL6R-L.

The results in this text go back to patent publication JP2014043405A (dated 2014).

Substitutions are numbered along the chain they refer to. Names may count otherwise.

ヒトFcγRIa, sequence (P12314 16-292): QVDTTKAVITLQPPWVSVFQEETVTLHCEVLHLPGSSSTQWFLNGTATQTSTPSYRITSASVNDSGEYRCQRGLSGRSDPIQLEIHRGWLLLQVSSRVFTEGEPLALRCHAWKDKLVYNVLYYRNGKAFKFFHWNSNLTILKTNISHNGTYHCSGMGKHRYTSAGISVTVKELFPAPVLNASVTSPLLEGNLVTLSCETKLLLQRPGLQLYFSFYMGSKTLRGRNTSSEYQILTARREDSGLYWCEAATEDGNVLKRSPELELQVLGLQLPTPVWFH

B1: Fv4-IgG1-F20 (antibody)
heavy: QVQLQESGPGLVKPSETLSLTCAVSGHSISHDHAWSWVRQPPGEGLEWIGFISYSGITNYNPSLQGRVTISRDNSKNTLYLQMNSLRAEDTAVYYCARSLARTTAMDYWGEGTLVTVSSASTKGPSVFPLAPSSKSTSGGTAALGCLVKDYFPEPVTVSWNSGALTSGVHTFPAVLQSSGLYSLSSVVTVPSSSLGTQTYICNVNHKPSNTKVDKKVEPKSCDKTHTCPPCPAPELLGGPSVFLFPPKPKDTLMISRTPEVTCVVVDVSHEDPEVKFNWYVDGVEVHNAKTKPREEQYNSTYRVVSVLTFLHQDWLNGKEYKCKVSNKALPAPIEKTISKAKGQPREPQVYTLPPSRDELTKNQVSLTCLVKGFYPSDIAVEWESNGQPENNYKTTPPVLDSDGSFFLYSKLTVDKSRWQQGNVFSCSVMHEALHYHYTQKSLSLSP
light: DIQMTQSPSSLSASVGDSVTITCQASTDISSHLNWYQQKPGKAPELLIYYGSHLLSGVPSRFSGSGSGTDFTFTISSLEAEDAATYYCGQGNRLPYTFGQGTKVEIERTVAAPSVFIFPPSDEQLKSGTASVVCLLNNFYPREAKVQWKVDNALQSGNSQESVTEQDSKDSTYSLSSTLTLSKADYEKHKVYACEVTHQGLSSPVTKSFNRGEC
notes: also called VH3-IgG1-F20/VL3-CK
Regarding B1, the binding result in test [1], in test [2] and in test [3] was “binds” each time.

B2: IL6R-BP423/IL6R-L (antibody, human IgG1)
heavy: QVQLQESGPGLVKPSETLSLTCAVSGHSISHDHAWSWVRQPPGEGLEWIGFISYSGITNYNPSLQGRVTISRDNSKNTLYLQMNSLRAEDTAVYYCARSLARTTAMDYWGEGTLVTVSSASTKGPSVFPLAPSSKSTSGGTAALGCLVKDYFPEPVTVSWNSGALTSGVHTFPAVLQSSGLYSLSSVVTVPSSSLGTQTYICNVNHKPSNTKVDKKVEPKSCDKTHTCPPCPAPDLLGDDSVFLFPPKPKDTLMISRTPEVTCVVVDVAEEDGEVKFNWYVDGVEVHNAKTKPREEQYNSTYRVVSVLTVLHQDWLNGKEYKCKVSNKALPRPIEKTISKAKGQPREPQVYTLPPSRDELTKNQVSLTCLVKGFYPSDIAVEWESNGQPENNYKTTPPVLDSDGSFFLYSKLTVDKSRWQQGNVFSCSVMHEALHNHYTQESLSLSP
light: DIQMTQSPSSLSASVGDRVTITCRASQDISSYLNWYQQKPGKAPKLLIYYTSRLHSGVPSRFSGSGSGTDFTFTISSLQPEDIATYYCQQGNTLPYTFGQGTKVEIK
As for B2, the binding result in test [4] is “binds”.

B3: IL6R-G4d/IL6R-L (antibody, human IgG4 S228P)
heavy: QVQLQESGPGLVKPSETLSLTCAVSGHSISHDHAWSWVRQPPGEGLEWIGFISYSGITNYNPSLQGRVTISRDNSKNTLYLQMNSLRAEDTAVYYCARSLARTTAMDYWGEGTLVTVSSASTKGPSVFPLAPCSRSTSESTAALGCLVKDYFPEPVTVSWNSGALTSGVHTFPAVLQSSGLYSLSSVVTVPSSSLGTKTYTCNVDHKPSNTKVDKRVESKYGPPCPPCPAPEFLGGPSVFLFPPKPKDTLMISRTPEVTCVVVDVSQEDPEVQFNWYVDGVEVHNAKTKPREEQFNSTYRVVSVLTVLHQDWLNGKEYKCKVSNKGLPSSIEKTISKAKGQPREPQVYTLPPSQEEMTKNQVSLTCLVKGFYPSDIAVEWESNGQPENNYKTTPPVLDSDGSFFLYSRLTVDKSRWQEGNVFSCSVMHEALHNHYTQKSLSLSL
light: B2 light
As for B3, the binding result in test [5] and in test [6] was “binds” in each case.

B4: IL6R-BP479/IL6R-L (antibody)
chain 1: B2 heavy with V266I, V268L, R332A
chain 2: not shown
B4: the “KD (IIaR)/KD (IIb)” value in test [7] worked out at 16.1 ratio.

B5: IL6R-BP473/IL6R-L (antibody)
chain 1: B2 heavy with A269S, E270D, Y298D, A329G
chain 2: not shown
In the case of B5, the “fold enhancement of binding against IL6R-BP230/IL6R-L” value in test [8] came to 1.2 fold.

B6: IL6R-BP234/IL6R-L (antibody)
chain 1: B2 heavy with L236Y, A269Q, E270D, Y298D, K328D, R332K
chain 2: not shown
As to B6, the “KD (IIaR)/KD (IIb)” value in test [7] is 10 ratio.

B7: IL6R-BP493/IL6R-L (antibody)
chain 1: B2 heavy with D235E, D239G, V266I, Y298D, R332A
chain 2: not shown
For the molecule B7, the “KD (IIaR)/KD (IIb)” value in test [7] was 52.1 ratio.

B8: IL6R-BP231/IL6R-L (antibody)
chain 1: B2 heavy with D235E, A269S, E270D, Y298D
chain 2: not shown
On to B8, for which, in test [7], the “KD (IIaR)/KD (IIb)” value is 32.2 ratio.

B9: IL6R-BP459/IL6R-L (antibody, human IgG1)
heavy: B2 heavy with P398R
light: B2 light
As for B9, in test [4], the binding result is “binds”.

B10: IL6R-BP267/IL6R-LにS267Aの改変が加えられた改変体 (antibody, human IgG1)
heavy: B2 heavy with R332A
light: B2 light
notes: also called IL6R-BP267 + S267A
In the case of B10, the binding result in test [4] was “binds”.

B11: IL6R-BP449/IL6R-L (antibody, human IgG1)
heavy: B2 heavy with P398E
light: B2 light
Regarding B11, the binding result in test [4] is “binds”.

B12: IL6R-BP267/IL6R-LにS267Gの改変が加えられた改変体 (antibody, human IgG1)
heavy: B2 heavy with A269G, R332A
light: B2 light
notes: also called IL6R-BP267 + S267G
Take B12: the binding result in test [4] is reported as “binds”.

B13: IL6R-BP267/IL6R-LにV266Mの改変が加えられた改変体 (antibody, human IgG1)
heavy: B2 heavy with V268M, A269S, R332A
light: B2 light
notes: also called IL6R-BP267 + V266M
As for B13, in test [4], the binding result is “binds”.

B14: IL6R-BP464/IL6R-L (antibody, human IgG1)
heavy: B2 heavy with P398Y
light: B2 light
For the molecule B14, the binding result in test [4] is listed as “binds”.

B15: IL6R-BP458/IL6R-L (antibody, human IgG1)
heavy: B2 heavy with P398Q
light: B2 light
B15: the binding result in test [4] was “binds”.

B16: IL6R-BP456/IL6R-L (antibody, human IgG1)
heavy: B2 heavy with P398M
light: B2 light
Regarding B16, in test [4], the binding result was “binds”.

B17: IL6R-BP450/IL6R-L (antibody, human IgG1)
heavy: B2 heavy with P398F
light: B2 light
With B17, the binding result in test [4] is reported as “binds”.

B18: IL6R-BP267/IL6R-LにS267Eの改変が加えられた改変体 (antibody, human IgG1)
heavy: B2 heavy with A269E, R332A
light: B2 light
notes: also called IL6R-BP267 + S267E
With B18, the binding result in test [4] is reported as “binds”.

B19: IL6R-BP267/IL6R-LにE269Dの改変が加えられた改変体 (antibody, human IgG1)
heavy: B2 heavy with A269S, E271D, R332A
light: B2 light
notes: also called IL6R-BP267 + E269D
Turning to B19, the binding result in test [4] is on record as “binds”.

B20: IL6R-BP455/IL6R-L (antibody, human IgG1)
heavy: B2 heavy with P398L
light: B2 light
With B20, the binding result in test [4] is “binds”.

B21: IL6R-BP454/IL6R-L (antibody, human IgG1)
heavy: B2 heavy with P398K
light: B2 light
On to B21, for which, in test [4], the binding result is listed as “binds”.

B22: IL6R-BP267/IL6R-LにV266Fの改変が加えられた改変体 (antibody, human IgG1)
heavy: B2 heavy with V268F, A269S, R332A
light: B2 light
notes: also called IL6R-BP267 + V266F
For B22, the binding result in test [4] was “binds”.

B23: IL6R-BP267/IL6R-LにV264Iの改変が加えられた改変体 (antibody, human IgG1)
heavy: B2 heavy with V266I, A269S, R332A
light: B2 light
notes: also called IL6R-BP267 + V264I
Consider B23, for which the binding result in test [4] is given as “binds”.

B24: IL6R-BP448/IL6R-L (antibody, human IgG1)
heavy: B2 heavy with P398D
light: B2 light
B24: the binding result in test [4] was “binds”.

B25: IL6R-BP253/IL6R-L (antibody, human IgG1)
heavy: B2 heavy with D235E, D239G, D240P, A269E, E270H, G273P, L330F, R332A
light: B2 light
notes: comparison antibody with the known FcγRIIb-enhancing substitutions
As to B25, the binding result in test [5] and in test [6] was “binds” each time.

B26: IL6R-BP453/IL6R-L (antibody, human IgG1)
heavy: B2 heavy with P398I
light: B2 light
As to B26, the binding result in test [4] is “binds”.
